Consider 22 sequences from the DeepSol protein solubility set.

This data set in a line: soluble on expression in E. coli; label from the status in PepcDB or PDB records.
Consider “MGSDKIHHHHHHMDHRQTFLSRYDTAACKAAHEIISCYSTSFGLATKLLRGRIRTDISNLYAMVRIADEIVDGTAQMAGLEPNAVSQLLDDYEAAVLAAPTQRFHADPILHAWALSARRCKFKTEHVQAFFTSMRNDLHKHNYEAAEFNEYVYGSAEVIGLMCLDAFLVEQHPRPHERTMMEHGARSLGSAFQKINFLRDLEEDTHVLGRNYFPQLTGELTDATKALLVADIRTDLAAAYRCIPLLPFDARVGVQAAADLFTALTDRIQEASAVEVTHTRIRIPKAQKIAIITRAPWRALHG”, for which the “soluble on expression in E. coli” value is listed as “not soluble”.

For the sequence “MGHHHHHHSHMGSELIGRLAPRLGLAEPDMLRKAEEYLRLSRVKCVGLSARTTETSSAVMCLDLAASWMKCPLDRAYLIKLSGLNKETYQSCLKSFECLLGLNSNIGIRDLAVQFSCIEAVNMASKILKSYESSLPQTQQVDLDLSRPLFTSAALLSACKILKLKVDKNKMVATSGVKKAIFDRLCKQLEKIGQQVDREPGDVATPPRKRKKIVVEAPAKEMEKVEEMPHKPQKDEDLTQDYEEWKRKILENAASAQKATAE”, the “soluble on expression in E. coli” value is on record as “not soluble”.

Turning to “MKEIYLPLHHGKAPHWLLSRMKKLAKPIVKLIVLEYGEREFLERLSNPIFFQSLSNVLGFDWNSSGVTTVLTGVLKAVINNEEFDIRIAGGKGGNALKTPEEIMNYSEQIGADGEKLVEFSRLAAKADNAALIDGYSLYHHAVIFTPRYFTVIQQGMNETERMARRYHWNVYSSVPELENVHEGIITERRENEVVNMLSDISRDAKRLCVDIVRDGSFRRDYERMISVLRWRKGLRVPKKLDWKVVERAYNLQPERFEELLLIRGFGRETIRALALVAEIIYNTEYDKTDPAKYCFAVGGKDGVPFPVRRDIYDEIIEFMRETVKQAEIGDFEKKKMLERLSRYGCDCQERRD”, the “soluble on expression in E. coli” value was “soluble”.

“MGSDKIHHHHHHMAYQLRSAALTNYVEVARAVGLDPYQQLRAARISRSVLLDPDIRIPAQAVSRLLESSANAAGIQDFGLRMAETRQLSNLGPLAFAMRQEPTLRRALESMARYLRLQNEAIAMRIEEAEGLVMLRQEALTGVAGSLRQSTDLVVGVLYRVLALVLGPKWRPRSICFSHAAPGSTAMYLRLFGMPVLFNQEFDGIICVASDLEVPLPSYDPTMARQVQQYLDTMLAQSDATISDKVRRLVLALLPSGACTIERVAQHMGVDVRTVQRRLANYDETFSAIVTATRVDLATRYLENRERPLSEVATLLGFGSLSAFSRWFGGHFGCSVSKWRAKGFAKAVKKEGAGRSH”: the “soluble on expression in E. coli” value was “not soluble”.

On to “MKNTLKLPLLIGVAGGTSCGKSTIVERIIENLNANAKQSGRQIDIVHLSLHSFYRELSAEEKILAREGKFNFDHPDQINFDLLAETLQNMIDGKTVEIPKYDMITSSMNGTVTVEPAKVIIIEGILLLYDERVRKLLSTKLFVEKNAESRLRNRLATYIRDYHRAPLSIIRQYTEFVKPAFEEFCRPTKKYADVIIPRGADNHVATDLIAKNLQVRFKRQNNALFDFEL”, for which the “soluble on expression in E. coli” value was “not soluble”.

For “MAKVTGTKVITNQVRLSFVHVLEPHAMEEGQEKKYSCMLIIPKDDKETLKAMKEAIKTAYEGAKGDKLKGVKFERLKTTLRDGDEEMDTEERPEFENAMFINVSSKTKPQVVKREDGVLVKTDDPDEVYSGVYAIASINFYAYSTAGNKGVTAGLNNILTLCKGDFLGGRANAESDFGDLEWEDEEDDMFS”, the “soluble on expression in E. coli” value is listed as “not soluble”.

On to “MGSDKIHHHHHHMKPALKSTPALRITLVCNTAWAIYTYRQGLIRMLVGRGVDVTVLAPRDRTFELLVAMGCRCIELPVASKGTSPRDDLRTLYALYRQYRSIRPHVVFHYTIKPNIYGSIAARLAGVQSVAVTTGLGYVFIQQSRAAQVAKKLYRFAFRFPREIWFLNRDDQAAFVEQNLLVHPERARLLHGEGVDLEQFAFTPLPERADYRFVLIGRLLWDKGVGEYVEAARRLRERYPHARFQLLGPVGVDNPSAITREEVAAWEREGIIEYLGEAHDVRPFIAEADCVVLPSYREGVPRTLMEASAMGRPIVTTDVPGCREVVADGVNGLLCEARNAASLAATLARMLDMSGAERRALAERGRKKVAEEFDERVVVEMYKDLVQKMTGVLL”, for which the “soluble on expression in E. coli” value is recorded as “not soluble”.

With “MKIDTNFLCDLWMALFQFSNDENINEKECTALVDIMSLVEKVLVLKLQDDVPNIVKILAVLTDFGDSELPHSMDSLLRAYEPDLDNPIKKVA”, the “soluble on expression in E. coli” value is reported as “not soluble”.

With “MSLSYPYYIVDAFAEEVFKGNPAAVYVLEKWLPEAVMQNIAIENNLSETAFTVKEGQSYALRWFTPEREIDLCGHATLATAFVLFNYYSVAEETLHFTSQSGPLAVTKKEEYYYLDFPYILPERIPILPEYEAALGTKIYEAYLGRDLFFVLKDEETVAKITPDFSALKALDLGVGVIVTASGDSVDFVSRTFFPKLRINEDPVCGSAHANLIPYWGKRLNQTTLSAYQVSPRGGFLTCEVKENRVIIGGTAKLFAKGEAYLPVEGGSHHHHHH”, the “soluble on expression in E. coli” value is listed as “soluble”.

For “MGLNVREGEIMAKNRSRRLRKKMHIDEFQELGFSVAWRFPEGTSEEQIDKIVDDFINEVIEPNKLAFDGSGYLAWEGLICMQEIGKCTEEHQAIVRKWLEECKLDEVRTSELFDVWWD”, the “soluble on expression in E. coli” value is on record as “not soluble”.

Turning to “MISSLAVEFGALRLACTSKIVMATRNMPARGTKPLPRHLWDMSDLEEKTSGQYTHKPLRINRLGGRDPETGRKVNQHIGGGVKFDYFMIDFHRRGPADQGATYDERILEIRRDPNRTCHIALCAGINGKRWILATENMKAGDVISTSGHLSENPVIGVEGNAYPIGSLAAGTVINSIERYPTMDSETFVKAAGTSATIVRHQGDFTVVKLPHKHEFSLHRTCMATVGRLSHADIDGKIFGSAQMHRRFGYKMSSGLFHKKDGYFGRKVRALPPVRILDTPPQAPPPNQRFTLSKKDLSGLHGHAKVHNLIPAGYSTRDYPE”, the “soluble on expression in E. coli” value is “not soluble”.

On to “MIHKRTNEGDLVIESFADKRCKDLLEGNPPKGFPTTLVRIVQRKLFMLDKAVDLKDLRSPPGNRLEALKGERKGQYSIRINDQFRICFEWRSNGAYEVEIVDYH”, for which the “soluble on expression in E. coli” value was “not soluble”.

With “MGSDKIHHHHHHMNFIKTISPIQKINFNGFEFYIKRDDLLGEINGNKARKLAFYIHQRYPKNQSFVSYGGSQSNALAALSIFAKQRSYKLVFACEKISTFLKNNPCGNYALALENGVDFVENIHSLSLKQFALSLCKKDDVFIEQGIANLEAQYGYMELAQEIQMQSQSLKLDFDIFLPSGTGTSAAFLAKYSKFKVFTCACVGDIKYLKKQILTLDPSYDFSNLEFLTSDKKYHFAKPYKEFYELYMDLKLKCNIEFDLLYDILGLSIALKQEWKKPLLYIHQGGILGNSTMLERYKFKKSV”, the “soluble on expression in E. coli” value is “not soluble”.

Regarding “MAQQETPQDKRRRHARVDNVIYANFGAKTTVRTEPEAPEIVESRNFSPVALRIRDLATQEADAGRLKRGRDYARSGHVLNVKFGNSLITADVAGSQNLPFQVSIAFPYLSTDGLSQITQYIAASPDGLNAARHGQLSEDILDLLLGTQVTFRCDCPDHVVCCKHSVAVVTVASEKVEADPLLAFRLRGLDLAQLEQAVTMQARAASTQDLKERFWQGRDLPSLPEPKIAPALDDSDASLLHKAMRLVSYTNIDELRAVSDIEDIYYHLTHEKG”, the “soluble on expression in E. coli” value was “not soluble”.

On to “MKIGLFYGSSTCYTEMTAEKIRAILGEELVDIHNVKESPLTLMSDYDLLLLGISTWDFGEIQEDWSAVWDHIGGVSLKNKYVALFGLGDQEGYGEWYLDAMGLLHDQIKKSGANLLGYWPNQGYHFEASKALTEDGSHFVGLALDEDSQYDLSDERIATWVEQVLTEYHDAI”, for which the “soluble on expression in E. coli” value is “not soluble”.

Regarding “MSLRLQFQLKVDGLEDESLVVRGFEGQESLSDSVWRCEPCYGFRYQVDLASALSNLTAEQFVDQTAHLTILRDGQVVQQINGIVRQLSKGDTGHRHTFYSLTLVPALERLSLRSNSRIFQQQSVPEIISILLQEMGIEDYAFALKRECAQREFCVQYRETDLQFLHRIAAEEGLVYSHLHEAQKHTLLFTDSSDSQPKLAKPVPYNALAGGEINLPYVVDLQFKTTAQVSHTELKDYSFKKPAYGFTQRTQGKDIAYQQPNYEHFDAPGRYKDDANGKAFSQIRLEYLRRDALLADAKSDEPLLLAGVRFDLQDHLDHAMNRDWLVVQANHQGTQPQALQEEGGSGATTYSNQLKLIPAHITWRARPCAKPQVDGPMIATVVGPQGEEIYCDNFGRVKVHFPWDRYSSSNEKSSCWVRVAQEWAGSQYGSMAIPRVGHEVIVSFLNGDPDQPIITGRTYHATNTAPYALPDHKTKTVLRTETEGHHHHHH”, the “soluble on expression in E. coli” value is “soluble”.

With “MGSDKIHHHHHHMKNLFLFCRAGFEKECAAEIQQRAGELNVGGFVKANNNDAYVVYQCFEEDAADTLVKQLPLDSLIFARQMFAASDLLVDLPESDRISPIVAALSDVSKAGEVRVETPDTNEAKELSAFCRKFTVPLRQHLKKSGSLLAQENPKRPIIHVCFIGPGRAYVGYSYSNNSSPHFMGIPRLKMAADAPSRSSLKLDEAFGQFVPKEEQEERIRSGMNAVDLGACPGGWTYQLVRRGMFVSAVDNGPMDEKLMETGQVKHYREDGFRFEPQRKNIYWLVCDMVRPSSL”, the “soluble on expression in E. coli” value is “not soluble”.

Take “MNGPIIMTREERMKIVHEIKERILDKYGDDVKAIGVYGSLGRQTDGPYSDIEMMCVMSTEEAEFSHEWTTGEWKVEVNFYSEEILLDYASQVESDWPLTHGQFFSILPIYDSGGYLEKVYQTAKSVEAQTFHDAICALIVEELFEYAGKWRNIRVQGPTTFLPSLTVQVAMAGAMLIGLHHRICYTTSASVLTEAVKQSDLPSGYDHLCQFVMSGQLSDSEKLLESLENFWNGIQEWTERHGYIVDVSKRIPF”: the “soluble on expression in E. coli” value is recorded as “soluble”.

On to “MKQAIGFIDSGVGGLTVVREVLKQLPHEQVYYLGDTARCPYGPRDKEEVAKFTWEMTNFLVDRGIKMLVIACNTATAAALYDIREKLDIPVIGVIQPGSRAALKATRNNKIGVLGTLGTVESMAYPTALKGLNRRVEVDSLACPKFVSVVESGEYKSAIAKKVVAESLLPLKSTKIDTVILGCTHYPLLKPIIENFMGDGVAVINSGEETASEVSALLDYHNLLDATDEEIEHRFFTTGSTQIFKDIAKDWLNMPDMTVEHIKLGK”, for which the “soluble on expression in E. coli” value is given as “not soluble”.

Take “MGSDKIHHHHHHVPQRTSFNGSTRPAWKNTTALIRNPKIASILATGGTGMVHAALQSGNPSMGVGAGNGAVYIDHTAFLDRAVEDILLSKRFDNSMVCATENSAVVEAPIYDKWLQMIQDKGAYLVPKKDYQKLADFVFNDKRGVNGPVAGMSARWICEHAGVTLSEGKDVLLFELDPKNIGEKLSSEKLSPLLSVYKAKDREDGIRIVKALLDYQGAGHNAAIQIGSQNDPFIDEYGKAVQASRVLVNQPDALGGIGDIYSDGLRPSLILGTGSWGKNSLSHNLSTSDLLNIKTIAKQRNRPQWIRLPEKIFTKKTSLPIFQMKMSRKSAGPLSSLTRAWSSSTSLTRSMNSWL”: the “soluble on expression in E. coli” value is given as “not soluble”.

Take “MSLTPATRNNDSAVAVADAFDDTGDGPPTAARFAALAACWRQPDDDLQAALAAETDTTVDAQSLRAEYTRLFVGPGPSQSPPYESVYRDGERDADLGPVYGSSTQAVARWYSEYGLQPAASESAPPDHLATELEFAAYLREHEGAETLEQFLTEHPRNWVESFARRVRDADPKPFYRTLLNVTVDTLARADTPLEGHHHHHH”: the “soluble on expression in E. coli” value was “not soluble”.

Regarding “KPAAHLIGDPSKQNSLLWRANTDRAFLQDGFSLSNNSLLVPTSGIYFVYSQVVFSGKAYSPKATSSPLYLAHEVQLFSSQYPFHVPLLSSQKMVYPGLQEPWLHSMYHGAAFQLTQGDQLSTHTDGIPHLVLSPSTVFFGAFAL”, the “soluble on expression in E. coli” value is reported as “soluble”.
